Values quoted from earlier work, collected in patent publication US20080107649A1, “Immunogenic compositions of cyclic peptides derived from the beta-amyloid peptide” (Pevion Biotech Ltd., priority 2004, published 2008).

Conditions: human, in vivo

Q: For “Aβ1-42: β-amyloid peptide of 42 amino acids (SEQ ID NO: 1), predominantly found in the plaques”, which “side effect of inoculation” value is on record?
A: severe side effect of cerebral inflammation in some patients
